Results: article PMC2646901, “Characterisation of receptor binding by the chemotaxis inhibitory protein of Staphylococcus aureus and the effects of the host immune response” (Molecular Immunology, 2007)

B1: human C5a receptor (C5aR) (receptor)
chain: MDSFNYTTPDYGHYDDKDTLDLNTPVDKTSNTLRVPDILALVIFAVVFLVGVLGNALVVWVTAFEAKRTINAIWFLNLAVADFLSCLALPILFTSIVQHHHWPFGGAACSILPSLILLNMYASILLLATISADRFLLVFKPIWCQNFRGAGLAWIACAVAWGLALLLTIPSFLYRVVREEYFPPKVLCGVDYSHDKRRERAVAIVRLVLGFLWPLLTLTICYTFILLRTWSRRATRSTKTLKVVVAVVASFFIFWLPYQVTGIMMSFLEPSSPTFLLLKKLDSLCVSFAYINCCINPIIYVVAGQGFQGRLRKSLPSLLRNVLTEESVVRESKSFTRSTVDTMAQKTQAV
notes: human C5a receptor (C5aR), expressed on transfected RBL-2H3 or CHO cells; also called hC5aR; RBL-C5aR; source: RBL-2H3 or CHO cells, transfected by electroporation, on cells
B2: human C5aR peptide of the N-terminal extracellular region M1-D37 with additional -APAPAC on the C-terminus (hC5aR_(1–37)) (peptide)
peptide: MDSFNYTTPDYGHYDDKDTLDLNTPVDKTSNTLRVPDAPAPAC
notes: human C5a receptor, N-terminal extracellular region, residues M1-D37; also called human C5aR_(1–37) peptide; source: gift from Dr M. Barker, Division of Genomic Medicine, Sheffield
B3: recombinant human C5a protein (rh-C5a) (ligand)
chain: TLQKKIEEIAAKYKHSVVKKCCYDGACVNNDETCEQRAARISLGPRCIKAFTECCVVASQLRANISHKDMQLGR
notes: source: expressed and purified according to a previously described protocol (Paczkowski et al., 1999)

Experiments:
[1] = target: T1, FITC-labelled recombinant CHIPS_(28–149) (Staphylococcus aureus N315 (MRSA), UniProt A6QIG7 28-149, FITC label (site not stated)); experiment: flow cytometry on cells; kinetics: 300 nM FITC-CHIPS(28-149) added to C5aR-transfected RBL cells, dissociation started with 14 μM unlabelled CHIPS(28-149); Kd from kobs and koff, five experiments; details: one partner purified
T1 construct: three N-terminal residues, GlyAlaMet, left from the vector after TEV cleavage; The discussion once calls the labelled protein of the serum assay rCHIPS_(26–141); results and methods say 28-149; also called FITC-rCHIPS_(28–149); FITC-CHIPS_(28–149); source: E. coli BL21 (DE3), purified (glutathione sepharose 4B, TEV cleavage, Mono S), FITC-labelled; not shown: GST, N-terminal, cleaved

[2] = target: T2, recombinant chemotaxis inhibitory protein of Staphylococcus aureus, residues 28-149 (rCHIPS_(28–149)) (Staphylococcus aureus N315 (MRSA), UniProt A6QIG7 28-149); experiment: ITC; CHIPS(28-149) (0.2 mM) titrated with the peptides; non-linear regression; data not shown; details: both partners purified
T2 construct: three N-terminal residues, GlyAlaMet, left from the vector after TEV cleavage; Uniformly 15N-labelled (isotope only) in the NMR titrations; unlabelled in ITC and in the cell assays; also called unlabelled CHIPS; ^15N-labelled CHIPS_(28–149); source: E. coli BL21 (DE3), purified (glutathione sepharose 4B, TEV cleavage, Mono S); not shown: GST, N-terminal, cleaved

[3] = target: T2, recombinant chemotaxis inhibitory …; experiment: NMR titration; 1H-15N HSQC of 0.7 mM 15N-CHIPS(28-149), unlabelled lyophilized ligand added to ligand:CHIPS ratios 0, 1:2, 3:4, 1:1, 5:4; 25 °C, 100 mM phosphate pH 7.0, 200 mM NaCl, 1 mM DTT, 0.5 mM EDTA; Kd from fast-exchange shift curves, averaged over residues; details: both partners purified
[4] = target: B1; experiment: flow cytometry on cells; competition: RBL cells transfected with human C5aR pre-treated with unlabelled CHIPS or human C5a, then 210 nM FITC-rCHIPS(28-149); cell-associated fluorescence; details: one partner purified

B1 showed a Kd [1] of 0.00722 ± 0.00666 µM.

For B2, the Ka [2] was 25000 M⁻¹, the Kd [2] was ~40 µM and the “stoichiometry N” value [2] was 1.4 ± 0.8. The Kd [3] was 8.25 µM.

In the case of B3, the IC50 [4] is reported as ~0.25 µM.
